From patent publication US20090104231A1 come the findings set out here.

Assay [1] addresses NS3 CD4 peptide … presented by MHC of C57B1 mice (Hepatitis C virus).
In assay [2] the target is NS3 CD8 peptide … presented by MHC of C57B1 mice (Hepatitis C virus).
In assay [3] the target is NS3 CD4 peptide … presented by MHC of C57B1 mice (Hepatitis C virus). The source holds these as a separate data set.
For assay [4], the target named is NS3 CD8 peptide … presented by MHC of C57B1 mice (Hepatitis C virus). This is another data set of the same source.
For assay [5], the target named is NS3 CD4 peptide … presented by MHC of C57B1 mice (Hepatitis C virus). This is another data set of the same source.
The target of assay [6] is NS3 CD8 peptide … presented by MHC of C57B1 mice (Hepatitis C virus). The source holds these as a separate data set.
For assay [7], the target named is purified HCV NS3 protein (genotype 1b) from Mikrogen (Hepatitis C virus genotype 1b).
Assay [8] has as its target NS4B CD8 peptide … presented by MHC of Balb/c mice (Hepatitis C virus).
The target of assay [9] is NS4B CD4 peptide … presented by MHC of Balb/c mice (Hepatitis C virus).
The target of assay [10] is purified HCV NS4 protein (genotype 1b) from Mikrogen (Hepatitis C virus genotype 1b).
In assay [11] the target is purified HCV NS5B protein (genotype 1b) from Mikrogen (Hepatitis C virus genotype 1b).
Assay [12] addresses NS5B CD4 peptide … presented by MHC of C57BL/6 mice (Hepatitis C virus).
For assay [13], the target named is NS5B CD8 peptide … presented by MHC of C57BL/6 mice (Hepatitis C virus).

Consider “T cells of C57BL mice immunised with gold beads co-coated with p7313ieNS3, p7313ieNS5B and p7313ieCore151 (cells without a defined receptor)”, for which the intracellular cytokine staining of IFNγ and IL2 (fold over the Core 191 group) in assay [1] and in assay [2] was 2 each time.

For the substance “T cells of C57BL mice immunised with gold beads co-coated with p7313ieNS3/NS4B/NS5B triple fusion together with core 151 (cells without a defined receptor)”, the intracellular cytokine staining (fold over the Core 191 group) in [3] and in [4] was 2 each time.

For “splenocytes of C57BL mice immunised with DNA encoding NS3 alone (cells without a defined receptor)”, the IFNγ-producing T cells, intracellular cytokine staining (frequency (unit not given)) in assay [5] was determined as 0.24; in assay [7], 0.29. For the same substance, the IFNγ-producing T cells, intracellular cytokine staining (% of CD8+ cells (unit from paragraph 162)) in assay [6] is 4.4.

As to “splenocytes of C57BL mice immunised with DNA encoding polyprotein HCV 500 (Core-NS3-NS4B-NS5B) (cells without a defined receptor)”, the IFNγ-producing T cells, intracellular cytokine staining (frequency (unit not given)) in assay [8] turned out to be 0.6; in [9], 0.1; in assay [10], 0.09; in assay [11] it was 0.14; in [12] it was 0.43; in [13], 0.35. The figures for the IFNγ-producing T cells, intracellular cytokine staining (frequency (unit not given)) in assay [5] and in assay [7] were 0.38 and 0.27, respectively. The same substance yielded an IFNγ-producing T cells, intracellular cytokine staining (% of CD8+ cells (unit from paragraph 162)) in assay [6] of 5.54.

Take “splenocytes of C57BL mice immunised with DNA encoding polyprotein HCV 501 (Core (66-191)-(1-65)-NS3-NS4B-NS5B) (cells without a defined receptor)”: the IFNγ-producing T cells, intracellular cytokine staining (frequency (unit not given)) in [8] turned out to be 0.13; in assay [9] it was 0.06; in [10] it was 0.09; in assay [11], 0.03; in assay [12], 0.13; in assay [13] it was 0.09. The figures for the IFNγ-producing T cells, intracellular cytokine staining (frequency (unit not given)) in [5], in [6] and in assay [7] were 0.08, 0.16 and 0.05, respectively.

As for “splenocytes of C57BL mice immunised with DNA encoding polyprotein HCV 510 (NS3-NS4B-NS5B-Core) (cells without a defined receptor)”, the IFNγ-producing T cells, intracellular cytokine staining (frequency (unit not given)) was found to be 0.34 in assay [8]; 0.09 in [9]; 0.09 in assay [10]; 0.1 in assay [11]; 0.29 in assay [12]; 0.11 in assay [13]. For the same substance, the values for the IFNγ-producing T cells, intracellular cytokine staining (frequency (unit not given)) in assay [5] and in assay [7] were 0.29 and 0.17, respectively. This substance registered an IFNγ-producing T cells, intracellular cytokine staining (% of CD8+ cells (unit from paragraph 162)) in assay [6] of 3.95.

As to “splenocytes of C57BL mice immunised with DNA encoding polyprotein HCV 520 (NS4B-NS5B-Core-NS3) (cells without a defined receptor)”, the IFNγ-producing T cells, intracellular cytokine staining (frequency (unit not given)) was 0.33 in [8]; 0.05 in [9]; 0.08 in assay [10]; 0.09 in assay [11]; 0.18 in assay [12]; 0.08 in assay [13]. Further, the IFNγ-producing T cells, intracellular cytokine staining (frequency (unit not given)) amounted to 0.28 in assay [5] and 0.14 in assay [7]. In addition, in [6], the IFNγ-producing T cells, intracellular cytokine staining (% of CD8+ cells (unit from paragraph 162)) was 3.32.

As to “splenocytes of C57BL mice immunised with DNA encoding polyprotein HCV 530 (NS5B-Core-NS3-NS4B) (cells without a defined receptor)”, the IFNγ-producing T cells, intracellular cytokine staining (frequency (unit not given)) in assay [8] turned out to be 0.37; in assay [9], 0.1; in [10] it was 0.17; in [11] it was 0.06; in [12], 0.7; in assay [13] it was 0.12. For the same substance, the results for the IFNγ-producing T cells, intracellular cytokine staining (frequency (unit not given)) in [5] and in assay [7] were 0.21 and 0.15, respectively. In assay [6], the IFNγ-producing T cells, intracellular cytokine staining (% of CD8+ cells (unit from paragraph 162)) stood at 4.89.

For the substance “splenocytes of mice immunised with DNA encoding NS4B as single antigen (cells without a defined receptor)”, the IFNγ-producing T cells, intracellular cytokine staining (frequency (unit not given)) in assay [8] was determined as 2.04; in assay [9], 0.18; in assay [10], 0.17.

Consider “splenocytes of mice immunised with DNA encoding NS5B as single antigen (cells without a defined receptor)”, for which the IFNγ-producing T cells, intracellular cytokine staining (frequency (unit not given)) in assay [11] is 0.1; in assay [12] it was 0.26; in assay [13] it was 1.67.
